Reference: patent US20160257755A1 (TRACON PHARMACEUTICALS, published 2016)
Substitutions are numbered along the chain they refer to.

T1: mouse endoglin, R&D Systems Cat. No. 1320-EN-025 (mouse, UniProt Q63961 27-581)
T1 construct: Coated directly on the plate at 1 ug/ml; also called murine endoglin
T1 sequence (looked up): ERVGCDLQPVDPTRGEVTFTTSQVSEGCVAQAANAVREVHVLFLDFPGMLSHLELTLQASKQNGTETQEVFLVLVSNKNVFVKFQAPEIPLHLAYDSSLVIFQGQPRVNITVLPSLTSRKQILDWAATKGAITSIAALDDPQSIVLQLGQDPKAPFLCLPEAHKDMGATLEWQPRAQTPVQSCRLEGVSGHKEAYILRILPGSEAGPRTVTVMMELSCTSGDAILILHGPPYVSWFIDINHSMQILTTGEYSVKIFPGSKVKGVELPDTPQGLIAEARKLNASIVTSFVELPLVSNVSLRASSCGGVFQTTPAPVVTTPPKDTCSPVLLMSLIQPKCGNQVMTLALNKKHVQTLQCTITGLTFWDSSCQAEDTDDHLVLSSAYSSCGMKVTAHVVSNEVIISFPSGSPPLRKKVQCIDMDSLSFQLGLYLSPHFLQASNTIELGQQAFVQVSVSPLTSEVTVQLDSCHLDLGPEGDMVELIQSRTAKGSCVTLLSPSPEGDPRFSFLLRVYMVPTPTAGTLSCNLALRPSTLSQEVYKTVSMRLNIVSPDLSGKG

T2: human CD105 (endoglin), R&D Systems Cat. No. 1097-EN (human, UniProt P17813 26-586)
T2 construct: Bought protein, captured on the plate by mouse anti-human CD105 (Southern Biotechnologies 9811-01); also called human endoglin
T2 sequence (looked up): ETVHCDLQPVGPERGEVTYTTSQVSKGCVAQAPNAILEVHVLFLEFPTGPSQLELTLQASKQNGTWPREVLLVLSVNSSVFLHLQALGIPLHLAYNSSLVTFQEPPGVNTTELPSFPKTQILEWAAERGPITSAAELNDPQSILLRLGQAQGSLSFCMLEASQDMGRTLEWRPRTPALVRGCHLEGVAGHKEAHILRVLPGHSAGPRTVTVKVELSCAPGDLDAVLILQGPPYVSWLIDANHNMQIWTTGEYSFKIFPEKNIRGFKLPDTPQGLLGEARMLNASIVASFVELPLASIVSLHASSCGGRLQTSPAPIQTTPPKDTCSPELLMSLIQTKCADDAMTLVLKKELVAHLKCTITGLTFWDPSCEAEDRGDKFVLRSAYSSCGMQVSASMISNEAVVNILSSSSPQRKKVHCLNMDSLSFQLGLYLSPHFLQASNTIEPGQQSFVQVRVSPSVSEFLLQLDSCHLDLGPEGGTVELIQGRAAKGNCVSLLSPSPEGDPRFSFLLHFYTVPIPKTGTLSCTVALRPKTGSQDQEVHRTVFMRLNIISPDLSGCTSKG

T3: recombinant endoglin (BIAcore analyte, Example 2) (UniProt P17813 26-586, limits assumed)
T3 sequence (looked up): T2 sequence (looked up)

B1: mouse BMP9 (R&D Systems, Cat. No. 5566-BP-010) (ligand, UniProt Q9WV56 319-428, looked up)
chain: STGASSHCQKTSLRVNFEDIGWDSWIIAPKEYDAYECKGGCFFPLADDVTPTKHAIVQTLVHLKFPTKVGKACCVPTKLSPISILYKDDMGVPTLKYHYEGMSVAECGCR
B2: human BMP9 (R&D Systems Cat. No. 3209-BP-010) (ligand, UniProt Q9UK05 320-429, looked up)
chain: B1 chain with T2A, S5G, D33E, I84V
B3: TRC205 antibody (antibody, IgG4, V domains shown)
VH: EVQLVESGGGLVKPGGSLRLSCAASGFTFSDAWMDWVRQAPGKGLEWVGEARSKASNHATYYAESVKGRFTISRDDSKNTLYLQMNSLKTEDTAVYYCTRWRRFFDSWGQGTLVTVSS
VL: DIQMTQSPSSLSASVGDRATITCRASSSVSYMHWYQQKPGKAPKPWAYATSNLASGVPSRFSGSGSGTDYTLTISSLQPEDFATYYCQQWSSNPLTFGGGTKVEIK
notes: Humanized and deimmunized IgG4; also called biotinylated TRC205; unlabelled TRC205
B4: humanized/deimmunized anti-endoglin antibody VK1AAVH1R (antibody, human IgG1, V domains shown)
VH: B3 VH with A51I, K54R
VL: B3 VL
B5: humanized/deimmunized anti-endoglin antibody VK1AAVH1Q (antibody, human IgG1, V domains shown)
VH: B3 VH with A51I, K54Q
VL: B3 VL
B6: VK2SSVH1Q (antibody, V domains shown)
VH: B3 VH with A51I, K54Q
VL: B3 VL with M4L, A19V, T22S, A47I, T50S
notes: humanized/deimmunized anti-endoglin antibody variant
B7: humanized/deimmunized anti-endoglin antibody VK1AAVH1A2 (antibody, V domains shown)
VH: B3 VH
VL: B3 VL
notes: It has the same variable domains as TRC205, which is IgG4
B8: VK2SSVH1S (antibody, V domains shown)
VH: B3 VH with G49S, A51I
VL: B3 VL with M4L, A19V, T22S, A47I, T50S
notes: as for B6
B9: VK2SAVH1S (antibody, V domains shown)
VH: B3 VH with G49S, A51I
VL: B3 VL with M4L, A19V, T22S
notes: as for B6
B10: M1043 antibody (antibody, rat IgG1, V domains shown)
VH: QVQLQQSGAELVKPGSSVKISCKASGYTFTSYDMHWIKQQPGNGLEWIGWIYPGNGNTKYNQKFNGKATLTADKSSSTAYMQLSSLTSEDSAVYFCARGKFGVGDYWGQGVMVTVSS
VL: DTVLTQSPALAVSPGERVSISCRASEGVNSYMHWYQQKPGQQPKLLIYIASNLASGVPARFSGSGSGTDFTLTIDPVEADDTATYFCQQSWNDPYTFGAGTKLELKR
notes: also called Antibody M1043; biotinylated M1043
B11: chimeric anti-endoglin antibody (TRC105) (antibody, V domains shown)
VH: EVKLEESGGGLVQPGGSMKLSCAASGFTFSDAWMDWVRQSPEKGLEWVAEIRSKASNHATYYAESVKGRFTISRDDSKSSVYLQMNSLRAEDTGIYYCTRWRRFFDSWGQGTTLTVSS
VL: QIVLSQSPAILSASPGEKVTMTCRASSSVSYMHWYQQKPGSSPKPWIYATSNLASGVPVRFSGSGSGTSYSLTISRVEAEDAATYYCQQWSSNPLTFGAGTKLELK
notes: also called chimeric anti-CD105; c-SN6j

Columns and labels:
[1] = biological target: T1, mouse endoglin, R&D Systems Cat. No. …; experiment: competition ELISA on coated mouse endoglin, competitor biotinylated M1043 (40 ng/ml)
Procedure: Nunc Immuno MaxiSorp 96 well flat bottom plates (Fisher Cat. No. DIS-971-030J) were coated with mouse endoglin (R&D Systems, Cat. No. 1320-EN-025) at 1μg/ml in PBS overnight at 4° C. The following day the plate was washed three times with PBST before blocking with PBST/3% Marvel at room temperature for 1 hour. […] Binding of the biotinylated antibody was detected via streptavidin-HRP (Sigma, Cat. No. 55512) and TMB substrate (Sigma, Cat. No. T0440). OD450 nm values were measured on a Dynex MRX TCII plate reader.

[2] = biological target: T2, human CD105 (endoglin), R&D Systems …; experiment: competition ELISA on captured human CD105, human BMP9 against biotinylated TRC205 (55 ng/ml); human BMP9 as competitor, in nM
Procedure: (§1) OD450 nm values were measured on a Dynex MRX TCII plate reader.

[3] = biological target: T2, human CD105 (endoglin), R&D Systems …; experiment: competition ELISA on captured human CD105, unlabelled TRC205 against biotinylated TRC205 (55 ng/ml); unlabelled TRC205 as competitor, in nM
Procedure: as §1

[4] = biological target: T2, human CD105 (endoglin), R&D Systems …; experiment: direct ELISA, biotinylated TRC205 on human CD105 captured by anti-CD105, streptavidin-HRP detection
Procedure: as §1

[5] = biological target: T3, recombinant endoglin (BIAcore analyte, …); experiment: SPR (BIAcore), antibody captured on protein A, recombinant endoglin as analyte
Procedure: Affinity of antibodies can be assessed using, for example, BIAcore analysis using standard protocols. Briefly, protein A is chemically coupled to a BIAcore CM5 chip, with the amount of protein A immobilized corresponding to 2000 RU. Subsequent steps are performed in a running buffer of 10 mM HEPES, 150 mM NaCl, 3 mM EDTA, 0.05% TWEEN, pH=7.4, at 25 degrees Celsius using a 10 Hz data collection rate. […] Start-up cycles are performed using running buffer at a flow rate of 40 μL/min, a contact time of 90 seconds and a dissociation time of 90 seconds. Sample cycles are performed using recombinant endoglin at concentrations ranging from 0 to 40 nM. Endoglin is passed over the BIAcore chip containing captured antibody at a flow rate of 40 μL/min with a contact time of 525 seconds and dissociation time of 2500 seconds. […] Regeneration of the chip is accomplished using 10 mM glycine pH=1.7. Data analysis is performed using BIAcore T100 Evaluation Software v1.1 Signals generated using BIAcore chips with different captured antibody densities are compared and data generated in the absence of recombinant endoglin are used to adjust for the intraassay blank signal. For fitting of the data, the Rₘₐₓ is allowed to float to account for variation in capture levels of each antibody in each cycle. Data from each capture density is fitted simultaneously during analysis of each antibody.

[6] = biological target: T2, human CD105 (endoglin), R&D Systems …; experiment: competition ELISA on captured human CD105 against biotinylated chimeric anti-CD105 (6.25 ng/ml); streptavidin-HRP/TMB, absorbance at 450 nm
Procedure: FIGS. 6A-6F. Anti-CD105 competition ELISA with humanized and humanized/deimmunized antibodies. […] Binding was detected via streptavidin-HRP and TMB substrate. Absorbance (OD) at 450 nm was measured on a plate reader and this was plotted against the test antibody concentration.
as §1

[7] = biological target: T1, mouse endoglin, R&D Systems Cat. No. …; experiment: direct ELISA on coated mouse endoglin, anti-rat IgG peroxidase detection
Procedure: The following day the plate was washed three times with PBST before blocking with PBST/3% Marvel at room temperature for 1 hour. […] Binding of the antibodies was detected via anti-rat IgG peroxidase (Sigma, Cat. No. A9037) and TMB single solution substrate (Invitrogen, Cat. No. 00-2023). The reaction was stopped by adding 3 M HCl and OD450 nm values were measured on a Dynex MRX TCII plate reader.

Row | Binder | Kd [5] [nM] | koff [5] [s⁻¹] | kon [5] [M⁻¹ s⁻¹] | other results
1 | B1 |  |  |  | binding result [1]: binds
2 | B2 |  |  |  | IC50 [2]: 14.6 nM
3 | B3 |  |  |  | IC50 [3]: 1.7 nM; EC50 [4]: 0.046 µg/mL
4 | B4 | 0.533 | 3.41e-05 | 64000 | 
5 | B5 | 0.85 | 3.03e-05 | 35600 | 
6 | B6 |  |  |  | binding result [6]: binds
7 | B7 | 0.706 | 3.25e-05 | 46000 | 
8 | B8 |  |  |  | binding result [6]: binds
9 | B9 |  |  |  | binding result [6]: binds
10 | B10 |  |  |  | binding result [7]: binds
11 | B11 | 0.6 | 3.28e-05 | 54700 | 
